Assay results published in patent US11795460B2, “Compositions and methods for TTR gene editing and treating ATTR amyloidosis” (Intellia Therapeutics, Inc., priority 2017, dated 2023).
Strand notation (5' to 3'): a small letter for the sugar, then the base; units joined by * are phosphorothioate-linked, units joined directly phosphodiester-linked; [ ] holds rarer units or linkages, { } end groups; capitals alone tell only the bases. m = 2'-O-methyl; r = 2'-OH (RNA)

Experiments:
TTR [1] = assay: EC50 and maximum editing in primary human hepatocytes treated with LNP formulated U-depleted Spy Cas9 mRNA and sgRNAs (Tables 19, 21); format: cell-based; set-up: key: % of sequence reads with indels or substitutions over total reads; details: Table 19, LNP with U-depleted Spy Cas9 mRNA and human specific sgRNAs, dose response
Description: (§1) Primary liver hepatocytes. Primary human liver hepatocytes (PHH) and primary cynomolgus liver hepatocytes (PCH) (Gibco) were cultured per the manufacturer's protocol (Invitrogen, protocol 11.28.2012). In brief, the cells were thawed and resuspended in hepatocyte thawing medium with supplements (Gibco, Cat. CM7000) followed by centrifugation at 100 g for 10 minutes for human and 80 g for 4 minutes for cyno. The supernatant was discarded and the pelleted cells resuspended in hepatocyte plating medium plus supplement pack (Invitrogen, Cat. A1217601 and CM3000). Cells were counted and plated on Bio-coat collagen I coated 96-well plates (ThermoFisher, Cat. 877272) at a density of 33,000 cells/well for human or 60,000 cells/well for cyno (or 65,000 cells/well when assaying effects on TTR protein, described further below). Plated cells were allowed to settle and adhere for 6 or 24 hours in a tissue culture incubator at 37° C. and 5% CO2 atmosphere. After incubation cells were checked for monolayer formation and media was replaced with hepatocyte culture medium with serum-free supplement pack (Invitrogen, Cat. A1217601 and CM4000).
(§2) For LNPs prepared using the cross-flow technique, the LNPs were formed by impinging jet mixing of the lipid in ethanol with two volumes of RNA solutions and one volume of water. The lipid in ethanol is mixed through a mixing cross with the two volumes of RNA solution. A fourth stream of water is mixed with the outlet stream of the cross through an inline tee. (See WO2016010840 FIG. 2.) The LNPs were held for 1 hour at room temperature, and further diluted with water (approximately 1:1 v/v). Diluted LNPs were concentrated using tangential flow filtration on a flat sheet cartridge (Sartorius, 100 kD MWCO) and then buffer exchanged by diafiltration into 50 mM Tris, 45 mM NaCl, 5% (w/v) sucrose, pH 7.5 (TSS). Alternatively, the final buffer exchange into TSS was completed with PD-10 desalting columns (GE). If required, formulations were concentrated by centrifugation with Amicon 100 kDa centrifugal filters (Millipore). The resulting mixture was then filtered using a 0.2 μm sterile filter. The final LNP was stored at 4° C. or −80° C. until further use.
(§3) To quantitatively determine the efficiency of editing at the target location in the genome, sequencing was utilized to identify the presence of insertions and deletions introduced by gene editing.
(§4) Primers were designed around the target site within the gene of interest (e.g. TTR), and the genomic area of interest was amplified.
(§5) Additional PCR was performed per the manufacturer's protocols (Illumina) to add chemistry for sequencing. The amplicons were sequenced on an Illumina MiSeq instrument. The reads were aligned to a reference genome (e.g., the human reference genome (hg38), the cynomologus reference genome (mf5), the rat reference genome (rn6), or the mouse reference genome (mm10)) after eliminating those having low quality scores. The resulting files containing the reads were mapped to the reference genome (BAM files), where reads that overlapped the target region of interest were selected and the number of wild type reads versus the number of reads which contain an insertion, substitution, or deletion was calculated.
(§6) The editing percentage (e.g., the “editing efficiency” or “percent editing” or “indel frequency”) is defined as the total number of sequence reads with insertions/deletions (“indels”) or substitutions over the total number of sequence reads, including wild type.
(§7) Lipid nanoparticle formulations of modified sgRNAs targeting human TTR and the cyno matched sgRNA sequences were tested on primary human hepatocytes and primary cyno hepatocytes in a dose response curve. Primary human and cyno hepatocytes were plated as described in Example 1. Both cell lines were incubated at 37° C., 5% CO2 for 24 hours prior to treatment with LNPs. […]

TTR [2] = assay: EC50 and maximum editing in primary cyno hepatocytes treated with LNP formulated U-depleted Spy Cas9 mRNA and sgRNAs (Tables 20, 22); format: cell-based, cynomolgus monkey; set-up: key: % of sequence reads with indels or substitutions over total reads; details: Table 20, LNP with U-depleted Spy Cas9 mRNA and human specific sgRNAs, dose response
Description: as §1, §2, §3, §4, §5, §6, §7

TTR [3] = assay: TTR editing in primary cyno hepatocytes electroporated with Spy Cas9 protein and sgRNAs (Tables 14, 15); format: cell-based, cynomolgus monkey; details: Table 14; primary cyno hepatocytes electroporated with Spy Cas9 protein (RNP) and sgRNAs
Description: as §1
Ribonucleotide formation was performed prior to electroporation or transfection of Spy Cas9 protein loaded with guide RNAs (RNPs) onto cells. For dual guide (dgRNAs), individual crRNA and trRNA was pre-annealed by mixing equivalent amounts of reagent and incubating at 95° C. for 2 min and cooling to room temperature. Single guide (sgRNAs) were boiled at 95° C. for 2 min and cooling to room temperature. The boiled dgRNA or sgRNA was incubated with Spy Cas9 protein in Optimem for 10 minutes at room temperature to form a ribonucleoprotein (RNP) complex.
For RNP electroporation into primary human and cyno hepatocytes, the cells are thawed and resuspended in Lonza electroporation Primary Cell P3 buffer at a concentration of 2500 cells per μL for human hepatocytes and 3500 cells per μL for cyno hepatocytes. A volume of 20 μL of resuspended cells and 5 μL of RNP are mixed together per guide. 20 μL of the mixture is placed into a Lonza electroporation plate. The cells were electroporated using the Lonza nucleofector with the preset protocol EX-147. Post electroporation, the cells are transferred into a Biocoat plate containing pre-warmed maintenance media and placed in a tissue culture incubator at 37° C. and 5% CO2.
Transfected cells were harvested post-transfection at 24, 48, or 72 hours. The genomic DNA was extracted from each well of a 96-well plate using 50 μL/well BuccalAmp DNA Extraction solution (Epicentre, Cat. QE09050) per manufacturer's protocol. All DNA samples were subjected to PCR and subsequent NGS analyses, as described herein.
as §3, §4, §5
The editing percentage (e.g., the “editing efficiency” or “percent editing” or “indel frequency”) is defined as the total number of sequence reads with insertions/deletions (“indels”) or substitutions over the total number of sequence reads, including wild type. […]

| Molecule | Max Editing (TTR [1]) | Max Editing (TTR [2]) | Avg % Deletion (TTR [3]) | Avg % Edit (TTR [3]) | Avg % Insert (TTR [3]) |
| --- | --- | --- | --- | --- | --- |
| G000494: TTR sgRNA modified sequence, Human, SEQ ID No. 101; guide sequence of CR003360 (nucleic acid) guide: mG*mU*mG*rArGrUrCrUrGrGrArGrArGrCrUrGrCrArUrGrUrUrUrUrArGrAmGmCmUmAmGmAmAmAmUmAmGmCrArArGrUrUrArArArArUrArArGrGrCrUrArGrUrCrCrGrUrUrArUrCrAmAmCmUmUmGmAmAmAmAmAmGmUmGmGmCmAmCmCmGmAmGmUmCmGmGmUmGmCmU*mU*mU*mU | 75.70 | 60.84 | 2.07% | 81.53% | 79.57% |
| G000499: TTR sgRNA modified sequence, Human, SEQ ID No. 106; guide sequence of CR005303 (nucleic acid) guide: mU*mG*mA*rArUrCrCrArArGrUrGrUrCrCrUrCrUrGrArGrUrUrUrUrArGrAmGmCmUmAmGmAmAmAmUmAmGmCrArArGrUrUrArArArArUrArArGrGrCrUrArGrUrCrCrGrUrUrArUrCrAmAmCmUmUmGmAmAmAmAmAmGmUmGmGmCmAmCmCmGmAmGmUmCmGmGmUmGmCmU*mU*mU*mU | 96.31 | 74.94 | 1.43% | 83.40% | 82.00% |
| G000486: TTR sgRNA modified sequence, Human, SEQ ID No. 93; guide sequence of CR003339 (nucleic acid) guide: mA*mC*mA*rCrArArArUrArCrCrArGrUrCrCrArGrCrArGrUrUrUrUrArGrAmGmCmUmAmGmAmAmAmUmAmGmCrArArGrUrUrArArArArUrArArGrGrCrUrArGrUrCrCrGrUrUrArUrCrAmAmCmUmUmGmAmAmAmAmAmGmUmGmGmCmAmCmCmGmAmGmUmCmGmGmUmGmCmU*mU*mU*mU | – | – | 68.07% | 79.90% | 11.90% |
| G000483: TTR sgRNA modified sequence, Human, SEQ ID No. 90; guide sequence of CR005298 (nucleic acid) guide: mU*mC*mC*rArCrUrCrArUrUrCrUrUrGrGrCrArGrGrArGrUrUrUrUrArGrAmGmCmUmAmGmAmAmAmUmAmGmCrArArGrUrUrArArArArUrArArGrGrCrUrArGrUrCrCrGrUrUrArUrCrAmAmCmUmUmGmAmAmAmAmAmGmUmGmGmCmAmCmCmGmAmGmUmCmGmGmUmGmCmU*mU*mU*mU | 77.39 | 56.52 | – | – | – |
| G000484: TTR sgRNA modified sequence, Human, SEQ ID No. 91; guide sequence of CR003367 (nucleic acid) guide: mA*mG*mA*rCrArCrCrArArArUrCrUrUrArCrUrGrGrArGrUrUrUrUrArGrAmGmCmUmAmGmAmAmAmUmAmGmCrArArGrUrUrArArArArUrArArGrGrCrUrArGrUrCrCrGrUrUrArUrCrAmAmCmUmUmGmAmAmAmAmAmGmUmGmGmCmAmCmCmGmAmGmUmCmGmGmUmGmCmU*mU*mU*mU | 94.14 | 0.22 | – | – | – |
| G000485: TTR sgRNA modified sequence, Human, SEQ ID No. 92; guide sequence of CR003336 (nucleic acid) guide: mC*mC*mU*rCrCrUrCrUrGrCrCrUrUrGrCrUrGrGrArCrGrUrUrUrUrArGrAmGmCmUmAmGmAmAmAmUmAmGmCrArArGrUrUrArArArArUrArArGrGrCrUrArGrUrCrCrGrUrUrArUrCrAmAmCmUmUmGmAmAmAmAmAmGmUmGmGmCmAmCmCmGmAmGmUmCmGmGmUmGmCmU*mU*mU*mU | – | – | 1.07% | 22.93% | 22.00% |
| G000491: TTR sgRNA modified sequence, Human, SEQ ID No. 98; guide sequence of CR003338 (nucleic acid) guide: mA*mU*mA*rCrCrArGrUrCrCrArGrCrArArGrGrCrArGrGrUrUrUrUrArGrAmGmCmUmAmGmAmAmAmUmAmGmCrArArGrUrUrArArArArUrArArGrGrCrUrArGrUrCrCrGrUrUrArUrCrAmAmCmUmUmGmAmAmAmAmAmGmUmGmGmCmAmCmCmGmAmGmUmCmGmGmUmGmCmU*mU*mU*mU | – | – | 1.90% | 66.20% | 64.37% |
| G000498: TTR sgRNA modified sequence, Human, SEQ ID No. 105; guide sequence of CR003359 (nucleic acid) guide: mA*mG*mU*rGrArGrUrCrUrGrGrArGrArGrCrUrGrCrArGrUrUrUrUrArGrAmGmCmUmAmGmAmAmAmUmAmGmCrArArGrUrUrArArArArUrArArGrGrCrUrArGrUrCrCrGrUrUrArUrCrAmAmCmUmUmGmAmAmAmAmAmGmUmGmGmCmAmCmCmGmAmGmUmCmGmGmUmGmCmU*mU*mU*mU | – | – | 22.87% | 91.37% | 68.50% |
| G000567: TTR sgRNA modified sequence, Human, SEQ ID No. 109; guide sequence of CR003352 (nucleic acid) guide: mG*mA*mA*rArGrGrCrUrGrCrUrGrArUrGrArCrArCrCrGrUrUrUrUrArGrAmGmCmUmAmGmAmAmAmUmAmGmCrArArGrUrUrArArArArUrArArGrGrCrUrArGrUrCrCrGrUrUrArUrCrAmAmCmUmUmGmAmAmAmAmAmGmUmGmGmCmAmCmCmGmAmGmUmCmGmGmUmGmCmU*mU*mU*mU | – | 97.06 | – | – | – |
| G000568: TTR sgRNA modified sequence, Human, SEQ ID No. 110; guide sequence of CR003391 (nucleic acid) guide: mG*mG*mC*rUrGrUrCrGrUrCrArCrCrArArUrCrCrCrArGrUrUrUrUrArGrAmGmCmUmAmGmAmAmAmUmAmGmCrArArGrUrUrArArArArUrArArGrGrCrUrArGrUrCrCrGrUrUrArUrCrAmAmCmUmUmGmAmAmAmAmAmGmUmGmGmCmAmCmCmGmAmGmUmCmGmGmUmGmCmU*mU*mU*mU | 95.72 | 87.93 | – | – | – |
| G000570: TTR sgRNA modified sequence, Human, SEQ ID No. 111; guide sequence of CR003347 (nucleic acid) guide: mC*mA*mU*rUrGrArUrGrGrCrArGrGrArCrUrGrCrCrUrGrUrUrUrUrArGrAmGmCmUmAmGmAmAmAmUmAmGmCrArArGrUrUrArArArArUrArArGrGrCrUrArGrUrCrCrGrUrUrArUrCrAmAmCmUmUmGmAmAmAmAmAmGmUmGmGmCmAmCmCmGmAmGmUmCmGmGmUmGmCmU*mU*mU*mU | 98.22 | 96.73 | – | – | – |
| G000571: TTR sgRNA modified sequence, Human, SEQ ID No. 112; guide sequence of CR005301 (nucleic acid) guide: mG*mU*mC*rArCrArGrArArArCrArCrUrCrArCrCrGrUrGrUrUrUrUrArGrAmGmCmUmAmGmAmAmAmUmAmGmCrArArGrUrUrArArArArUrArArGrGrCrUrArGrUrCrCrGrUrUrArUrCrAmAmCmUmUmGmAmAmAmAmAmGmUmGmGmCmAmCmCmGmAmGmUmCmGmGmUmGmCmU*mU*mU*mU | 71.28 | 97.03 | – | – | – |
| G000572: TTR sgRNA modified sequence, Human, SEQ ID No. 113; guide sequence of CR003385 (nucleic acid) guide: mC*mC*mC*rCrUrArCrUrCrCrUrArUrUrCrCrArCrCrArGrUrUrUrUrArGrAmGmCmUmAmGmAmAmAmUmAmGmCrArArGrUrUrArArArArUrArArGrGrCrUrArGrUrCrCrGrUrUrArUrCrAmAmCmUmUmGmAmAmAmAmAmGmUmGmGmCmAmCmCmGmAmGmUmCmGmGmUmGmCmU*mU*mU*mU | 97.94 | 100.31 | – | – | – |
